Paper PMC3589825, “The AFF4 scaffold binds human P-TEFb adjacent to HIV Tat” (eLife, 2013)
GABA = NCCCC(=O)O

Experiments:
Settings in all cases: both partners purified
[1] = target: T1, P-TEFb (CDK9 1–330 / cyclin T1 1–264) (human, UniProt P50750 1-330; O60563 1-264); experiment: fluorescence polarisation; competition titration of unlabeled AFF4 segments against 5 nM fluorescent peptide with 75 nM CycT1, 45 nM P-TEFb or 6 nM Tat-P-TEFb; 25 mM HEPES pH 7.5, 100 mM NaCl, 10% glycerol, 0.1% NP40, 0.5 mM TCEP
T1 construct: also called positive transcription elongation factor b; source: High5 insect cells (baculovirus), purified (His-Trap, TEV digest, His-Trap); not shown: His-tag, N-terminal, cleaved
T1 sequence (P50750 1-330, chain 1 of 2): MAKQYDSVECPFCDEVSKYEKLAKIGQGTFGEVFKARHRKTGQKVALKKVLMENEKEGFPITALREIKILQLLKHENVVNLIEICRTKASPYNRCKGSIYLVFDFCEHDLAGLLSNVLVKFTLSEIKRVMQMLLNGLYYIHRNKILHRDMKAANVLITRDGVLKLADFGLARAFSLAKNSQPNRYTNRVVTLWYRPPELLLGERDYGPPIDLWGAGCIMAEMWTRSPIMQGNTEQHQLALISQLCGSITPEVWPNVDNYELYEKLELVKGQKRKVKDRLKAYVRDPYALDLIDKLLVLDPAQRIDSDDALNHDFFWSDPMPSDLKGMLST
T1 sequence (O60563 1-264, chain 2 of 2): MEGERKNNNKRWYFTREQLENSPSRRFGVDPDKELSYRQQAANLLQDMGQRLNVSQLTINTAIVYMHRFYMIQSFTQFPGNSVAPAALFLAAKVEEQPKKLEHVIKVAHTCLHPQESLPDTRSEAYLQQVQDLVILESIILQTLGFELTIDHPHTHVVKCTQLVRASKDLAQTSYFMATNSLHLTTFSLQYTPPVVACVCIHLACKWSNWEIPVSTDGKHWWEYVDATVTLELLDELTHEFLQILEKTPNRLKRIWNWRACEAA

[2] = target: T2, Tat-P-TEFb complex (HIV-1 Tat 1–86, CDK9 1–330, cyclin T1 1–264) (human | HIV-1, UniProt P50750;O60563;P04608); experiment: as above
T2 construct: also called P-TEFb-Tat; not shown: His-tag, N-terminal, cleaved; copies: + +

[3] = target: T3, cyclin T1 (CycT1), purified alone, wild type (human, UniProt O60563 1-264); experiment: fluorescence polarisation
T3 construct: source: purified
T3 sequence (O60563 1-264): as the sequence (O60563 1-264, chain 2 of 2) above

[4] = target: T1, P-TEFb (CDK9 1–330 / cyclin T1 1–264); experiment: fluorescence polarisation
[5] = target: T2, Tat-P-TEFb complex (HIV-1 Tat 1–86, …); experiment: fluorescence polarisation
[6] = target: T3, cyclin T1 (CycT1), purified alone, wild …; experiment: fluorescence polarisation; competition titration of unlabeled AFF4 segments against 5 nM fluorescent peptide with 75 nM CycT1, 45 nM P-TEFb or 6 nM Tat-P-TEFb; 25 mM HEPES pH 7.5, 100 mM NaCl, 10% glycerol, 0.1% NP40, 0.5 mM TCEP

B1: AFF4(2–363) (domain or fragment, human, UniProt Q9UHB7 2-363, looked up)
chain: NREDRNVLRMKERERRNQEIQQGEDAFPPSSPLFAEPYKVTSKEDKLSSRIQSMLGNYDEMKDFIGDRSIPKLVAIPKPTVPPSADEKSNPNFFEQRHGGSHQSSKWTPVGPAPSTSQSQKRSSGLQSGHSSQRTSAGSSSGTNSSGQRHDRESYNNSGSSSRKKGQHGSEHSKSRSSSPGKPQAVSSLNSSHSRSHGNDHHSKEHQRSKSPRDPDANWDSPSRVPFSSGQHSTQSFPPSLMSKSNSMLQKPTAYVRPMDGQESMEPKLSSEHYSSQSHGNSMTELKPSSKAHLTKLKIPSQPLDASASGDVSCVDEILKEMTHSWPPPLTAIHTPCKTEPSKFPFPTKESQQSNFGTGEQK
Kd [1]: 7 ± 1 nM | Kd [2]: 0.6 ± 0.1 nM

B2: fluorescein-labeled AFF4(32–67) peptide (peptide)
peptide: {FAM-GABA}-SPLFAEPYKVTSKEDKLSSRIQSMLGNYDEMKDFIG-NH2
notes: source: synthetic peptide (University of Utah DNA/Peptide Facility)
Kd [3]: 104 ± 17 nM | Kd [4]: 36 ± 6 nM | Kd [5]: 8.8 ± 0.8 nM

B3: unlabeled AFF4(32–67) peptide (peptide)
peptide: SPLFAEPYKVTSKEDKLSSRIQSMLGNYDEMKDFIG
Kd [6]: 102 ± 10 nM | Kd [1]: 36 ± 4 nM | Kd [2]: 4.5 ± 0.6 nM

B4: AFF4(2–73) (domain or fragment, human, UniProt Q9UHB7 2-73, looked up)
chain: NREDRNVLRMKERERRNQEIQQGEDAFPPSSPLFAEPYKVTSKEDKLSSRIQSMLGNYDEMKDFIGDRSIPK
notes: source: E. coli Rosetta(DE3)pLysS, purified (His-Trap, TEV digest, His-Trap); not shown: His-tag, N-terminal, cleaved
Kd [6]: 130 ± 18 nM | Kd [1]: 10 ± 1 nM | Kd [2]: 0.85 ± 0.15 nM
